In patent publication US20150203579A1 (Regeneron, published 2015):

T1: monkey PD-1 with mFc (monkey)
T1 construct: also called monkey PD-1-mFc; monkey PD-1 dimer
T1 chain: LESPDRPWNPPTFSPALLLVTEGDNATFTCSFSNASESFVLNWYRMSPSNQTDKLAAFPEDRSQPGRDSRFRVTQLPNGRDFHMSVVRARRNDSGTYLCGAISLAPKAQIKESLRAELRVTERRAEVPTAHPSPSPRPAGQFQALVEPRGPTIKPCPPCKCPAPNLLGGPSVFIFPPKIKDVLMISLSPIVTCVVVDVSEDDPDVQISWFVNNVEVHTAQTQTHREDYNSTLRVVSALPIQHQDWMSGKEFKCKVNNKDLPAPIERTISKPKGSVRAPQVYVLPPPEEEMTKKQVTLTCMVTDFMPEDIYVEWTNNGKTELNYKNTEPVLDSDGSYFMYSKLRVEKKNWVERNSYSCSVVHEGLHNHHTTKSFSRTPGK


Experiments:
[1] = molecular target: T2, dimeric biotinylated human PD-1 protein with a C-terminal human Fc tag (human, biotinylated (sites not given)); test: competition ELISA: 200 pM biot-hPD-1-hFc to coated hPD-L1-mFc; * below theoretical bottom 1.0E-10 M
T2 construct: also called biot-hPD-1-hFc

[2] = molecular target: T3, recombinant human PD-1 dimer expressed with a C-terminal mouse IgG2a Fc tag (human); test: competition ELISA: 1.5 nM hPD-1-mFc to coated hPD-L1-hFc
T3 construct: also called hPD-1-mFc

[3] = molecular target: T4, full length human PD-1 on HEK293/hPD-1 cells (human, UniProt Q15116 25-288); test: FACS, 100 nM mAb
[4] = molecular target: T5, recombinant human PD-1 expressed with a C-terminal human IgG1 Fc tag (human); test: SPR Biacore 3000: 100 nM hPD-1.hFc + 500 nM mAb to captured hPD-L1.mFc;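 further: inhibition study with anti-PD-1 mAbs, SPR responses tracked in real time and read at the close of each step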
T5 construct: also called hPD-1-hFc; hPD1-hFc

[5] = molecular target: PD-1 chimera: extracellular domain of human PD-1 with trans-membrane and cytoplasmic domains of human CD300a, … (human, UniProt Q9UGN4 181-299, limits assumed); test: cell-based or functional assay
[6] = molecular target: T4, full length human PD-1 on HEK293/hPD-1 …; test: FACS, 100 nM mAb, HEK293/hPD-1 cells;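 further: antibodies incubated with cells for 15-30 min on ice, bound antibody detected through a secondary F(ab′)2 by flow cytometry, with parental HEK293 cells tested in parallel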
[7] = molecular target: T3, recombinant human PD-1 dimer expressed …; test: competition ELISA: 1.5 nM hPD-1-mFc to coated hPD-L1-hFc; * below theoretical bottom 7.5E-10 M
monkey PD-1 with mFc [8] = molecular target: T1, monkey PD-1 with mFc; test: SPR, captured mAb, 25 C;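 further: purified anti-PD-1 antibodies tested on Biacore 4000 or T200 instruments, rate constants obtained via 1:1 binding model fit, with KD as kd/ka and half-life as ln2/(60·kd)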
[9] = molecular target: T4, full length human PD-1 on HEK293/hPD-1 …; test: FACS dose response, HEK293/hPD-1 cells
monkey PD-1 with mFc [10] = molecular target: T1, monkey PD-1 with mFc; test: SPR, captured mAb, 37 C;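 further: Real-time Biacore surface plasmon resonance biosensor readout of PD-1 reagent binding to purified anti-PD-1 monoclonal antibodies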
[11] = molecular target: T2, dimeric biotinylated human PD-1 protein …; test: competition ELISA: 200 pM biot-hPD-1-hFc to coated hPD-L1-mFc
[12] = molecular target: T6, recombinant human PD-L1 expressed with a C-terminal mouse IgG2a Fc tag (human); test: SPR Biacore 3000: 500 nM mAb alone (no hPD-1.hFc) over captured hPD-L1.mFc surface, control
T6 construct: also called hPD-L1-mFc; hPD-L1.mFc

[13] = molecular target: T3, recombinant human PD-1 dimer expressed …; test: competition ELISA: 100 pM hPD-1-mFc to coated hPD-L2-hFc

Row | Binder | IC50 [1] [nM] | % blocking at 200 nM antibody [2] [%] | ratio of MFI HEK293/hPD-1 to HEK293 parental cells [3] | % Blocking [4] [%] | binding of the mixture (RU) [4] [RU] | Concentration (M) of Antibody at 150% activation [5] [M] | Emax mean [%] @ 100 nM [5] [%] | MFI [6] [MFI] | 100 nM Monkey PD-1-mFc Bound (RU) (monkey PD-1 with mFc [8]) | Kd (monkey PD-1 with mFc [8]) [nM] | koff (monkey PD-1 with mFc [8]) [s⁻¹] | kon (monkey PD-1 with mFc [8]) [M⁻¹ s⁻¹] | t1/2 (monkey PD-1 with mFc [8]) [min] | EC50 [9] [nM] | Max Geom. Mean MFI @ 100 nM [9] [MFI] | 100 nM Monkey PD-1-mFc Bound (RU) (monkey PD-1 with mFc [10]) | Kd (monkey PD-1 with mFc [10]) [nM] | koff (monkey PD-1 with mFc [10]) [s⁻¹] | kon (monkey PD-1 with mFc [10]) [M⁻¹ s⁻¹] | t1/2 (monkey PD-1 with mFc [10]) [min] | other results
1 | H4xH9034P (antibody, V domains shown, human IgG4 Fc with 2 or more amino acid changes (US20100331527); also called H4xH9034P2) VH: EVQLVESGGGVVRPGGSLRLSCTASGFTFDDYGMSWVRQAPGKGLEWISGIGWTGGRSSYADSVRGRFTISRDNAKNSLYLQMNSLGAEDTALYYCARDRQWLVQWYFDYWGQGTLVTVSS VL: not shown | 0.066 | 98 | 69 | 105 | -5 | 2.62e-09 | 202 | 10100 | 95 | 0.818 | 0.000166 | 203000 | 70 | 0.209 | 32400 | 81 | 2.44 | 0.000749 | 307000 | 15 | IC50 [7]: 0.51 nM; % blocking at 50 nM antibody [11]: 96%; 500 nM of anti-PD-1 monoclonal antibody (RU) [12]: -4 RU
2 | H4xH9035P (antibody, V domains shown, human IgG4 Fc with 2 or more amino acid changes (US20100331527); also called H4xH9035P2) VH: EVQLVESGGRVVRPGGSLRLSCAASGFTFDDYGMSWVRQLPGKGLEWVAGISWNDGKTVYAESVKGRFIISRDNAKNSLHLEMNSLRAEDTALYYCARDWQYLIDRYFDFWGQGTLVTVSS VL: not shown | 0.08 | 99 | 91.7 | 104 | -4 | 1.2e-09 | 227 | 9920 | 78 | 0.46 | 9.96e-05 | 216000 | 116 | 0.115 | 28700 | 40 | 1.7 | 0.000623 | 367000 | 19 | IC50 [7]: 0.62 nM; % blocking at 50 nM antibody [11]: 95%; 500 nM of anti-PD-1 monoclonal antibody (RU) [12]: -3 RU
3 | H4xH9048P2 (antibody, V domains shown, human IgG4 Fc with 2 or more amino acid changes (US20100331527)) VH: QVQLVQSGAEVKRPGSSVKVSCKVSGVTFRNFAIIWVRQAPGQGLEWMGGIIPFFSAANYAQSFQGRVTITPDESTSTAFMELASLRSEDTAVYYCAREGERGHTYGFDYWGQGTLVTVSS VL: not shown | – | 67 | 70.8 | – | – | – | 138 | 7200 | 115 | 0.754 | 0.000184 | 243000 | 63 | 0.668 | 33700 | 84 | 2.29 | 0.00113 | 494000 | 10 | % blocking at 100 nM antibody [13]: 98%; IC50 [13]: 0.14 nM; IC50 [2]: 3.3 nM
4 | H4xH9119P2 (antibody, V domains shown, human IgG4 Fc with 2 or more amino acid changes (US20100331527)) VH: EVQLVESGGGLVQPGRSLRLSCAASGFTFEDYAMHWVRQAPGKGLEWVSGIGWSNVKIGYADSVKGRFTISRDNVRNSLYLQMNSLRTEDTAFYYCVKAYTSMLTLYFDYWGQGTLVTVSS VL: not shown | 0.082 | 78 | 84 | 105 | -5 | 1.11e-08 | 163 | 9140 | 83 | 1.05 | 0.000172 | 163000 | 67 | 0.348 | 37800 | 40 | 3.17 | 0.000885 | 279000 | 13 | IC50 [7]: 0.2 nM; % blocking at 50 nM antibody [11]: 96%; 500 nM of anti-PD-1 monoclonal antibody (RU) [12]: -5 RU
